Numbering of substitutions follows the chain as printed. Values belong to the binder of their own block, whether it stands above or below them.
Columns and labels:
[1] = molecular target: T1, Biotinylated His14-Avi-bdSUMO-tagged Nup98^716-866 (Xenopus tropicalis, UniProt A0A1B8XZT4, biotin on the Avi-tag); experiment: pull-down; biotinylated His14-Avi-bdSUMO-Nup98^716-866 immobilized on Streptavidin agarose; GFP-tagged TP377 bound without or with an equimolar amount or fivefold excess of nanobody competitor; elution by cleavage of the bdSUMO tag; SDS-PAGE, Coomassie; conditions: both partners purified
T1 construct: also called Nup98 NPC anchor domain

[2] = molecular target: T2, Nup98 (endogenous, Xenopus egg extract) (Xenopus laevis (egg extract), UniProt A0A8J1MFV7); experiment: affinity purification with mass spectrometry; biotinylated tagged nanobody on magnetic Streptavidin beads, Xenopus egg extract (HSS) 1 h at 4°C, washes in S250 and in 50 mM Tris/HCl pH 7.5, 300 mM NaCl, 0.05% Tween-20, RanQ69L•GTP wash, elution by SUMOStar protease; SDS-PAGE, Coomassie, bands identified by mass spectrometry; conditions: one partner purified
T2 construct: Xenopus Nup98, FG-repeat nucleoporin; source: endogenous, Xenopus egg extract (high-speed supernatant)

[3] = molecular target: T3, Nup98 in nuclear pore complexes of Xenopus laevis XL177 cells (Xenopus laevis XL177 cells, UniProt A0A8J1MFV7); experiment: immunostaining of cells or tissue; digitonin-permeabilized Xenopus laevis XL177 cells, 1-10 nM fluorescent nanobody 15 min on ice, washed, then fixed; confocal laser scanning microscopy; conditions: one partner purified
T3 construct: Xenopus laevis Nup98 within intact NPCs; also called (x)Nup98; source: endogenous, digitonin-permeabilized Xenopus laevis XL177 cells

binding result [1]: binds
B1: untagged TP377 produced in the oxidative periplasm (VHH)
VHH: QVQLVESGGGPVEAGGSLRLSCAASGRSFSNSVMAWFRQAPGKEREFLSVLNWSSGRTSIADSVKGRFTMSRDPAKITVYLQMNGLKPEDTAVYYCAASNRGSLYTLDNQNRYEDWGQGTQVTVSS
notes: also called oxidized, disulfide bond-stabilized nanobody; source: E. coli BLR periplasm

binding result [1]: binds
B2: unlabeled TP377 (competitor in Figure 5—figure supplement 1c) (VHH)
VHH: B1 VHH

binding result [2]: binds
B3: Biotinylated His14-Avi-(GlySer)9-SUMOStar-(GlySer)9-tagged anti-Nup98 nanobody TP377 (VHH)
VHH: B1 VHH
notes: source: E. coli cytoplasm, co-expressed with BirA, purified (Ni2+ chelate, imidazole elution); not shown: His14, N-terminal, kept; (GlySer)9-scSUMOStar-(GlySer)9, N-terminal, kept

binding result [1]: binds
B4: untagged TP377 produced in the mildly oxidative cytoplasm of E. coli SHuffle (VHH)
VHH: B1 VHH
notes: also called SHuffle-expressed TP377; source: E. coli SHuffle cytoplasm; not shown: His14-bdNEDD8, N-terminal, cleaved

binding result [1]: binds
B5: 3x Alexa Fluor 488-labeled TP377 (VHH)
VHH: B1 VHH with S7C, S71C
notes: also called 3xCys; source: E. coli cytoplasm, purified (Ni2+ chelate, bdNEDP1 cleavage), labeled with Alexa Fluor 488 maleimide; not shown: His14-bdNEDD8, N-terminal, cleaved

binding result [1]: binds
B6: untagged TP377 produced in the reductive cytoplasm of E. coli BLR (VHH)
VHH: B1 VHH
notes: also called reduced variant; source: E. coli BLR cytoplasm

binding result [3]: binds
B7: anti-Nup98 nanobody TP377 carrying a single N-terminal Alexa Fluor 647 maleimide (VHH)
VHH: B1 VHH
notes: not shown: His14-bdNEDD8, N-terminal, cleaved

From article PMC4755751 (eLife, 2015)
